Test results: PMC11509930, “Improving Hydrolytic Activity and Enantioselectivity of Epoxide Hydrolase from Phanerochaete chrysosporium by Directed Evolution” (Molecules, 2024)
Where a chain is given by its changes, count along the chain named. Names and notes keep the numbering of the source.

B1: PchEHA (epoxide hydrolase) (Phanerodontia chrysosporium; G14A/K291R/Y163H) (protein)
chain: MDASLFKDFKTSRAFNYHYFYSPAKGPRPTLFFLHGNPSVATDWAQIVPHFTSRGYGVLAPDMLGYGDTDKPTDPALYVSSGMCRNLVDLLDHEGLEKVIAIGHDWGCLSVSRLASYYPERVIAYAFLAASFIGPIPPIPFDAFLEYIKQQVGYELYGYWKFHSEPGLDQFVRDHLDTFLSILWPSDPAVWKTRLAPTGALKQSALEGWTAPLAPYITEEFKKHHVEVFNKNGFEAPACYYRIMTSGLQAEDDKQILPERAVPPKDAPVFFGAANKDYICIPALAYATFKRDEWKDHKITIKEYDADHWLILSHADQVSRDLEAWIEGFASGGQ
notes: catalytic triad D105/H308/D277
B2: PchEHA (epoxide hydrolase) (Phanerodontia chrysosporium; E251G/G14A/K291R) (protein)
chain: B1 chain with H163Y, E251G
notes: as for B1
B3: PchEHA (epoxide hydrolase) (Phanerodontia chrysosporium; A24T/E251G) (protein)
chain: B1 chain with A14G, A24T, H163Y, E251G, R291K
notes: as for B1
B4: PchEHA (epoxide hydrolase) (Phanerodontia chrysosporium) (protein)
chain: B1 chain with A14G, H163Y, R291K
notes: as for B1
B5: PchEHA (epoxide hydrolase) (Phanerodontia chrysosporium; C108S/G14A/K291R) (protein)
chain: B1 chain with C108S, H163Y
notes: as for B1
B6: PchEHA (epoxide hydrolase) (Phanerodontia chrysosporium; E251G/Y163H) (protein)
chain: B1 chain with A14G, E251G, R291K
notes: as for B1

Substrate: c1ccc([C@@H]2CO2)cc1
Assay: purified protein
Assay type: biochemical, Phanerodontia chrysosporium
Settings: 10-80 mM SO, 37 °C, buffer pH 8.0

Protein | Km | kcat | kcat/Km
B1 | 20.36 ± 1.34 mM | 2480 ± 52.4 s⁻¹ | 122000 M⁻¹ s⁻¹
B2 | 22.6 ± 1.75 mM | 2250 ± 59 s⁻¹ | 99600 M⁻¹ s⁻¹
B3 | 26.28 ± 3.79 mM | 1660 ± 87.3 s⁻¹ | 63100 M⁻¹ s⁻¹
B4 | 25.75 ± 2.08 mM | 1740 ± 50.8 s⁻¹ | 67500 M⁻¹ s⁻¹
B5 | 21.71 ± 2.6 mM | 3020 ± 120 s⁻¹ | 139000 M⁻¹ s⁻¹
B6 | 14.16 ± 1.19 mM | 2350 ± 52.3 s⁻¹ | 166000 M⁻¹ s⁻¹

Substrate: c1ccc([C@H]2CO2)cc1
Assay: purified protein
Assay type: biochemical, Phanerodontia chrysosporium
Settings: 10-80 mM SO, 37 °C, buffer pH 8.0

Protein | Km | kcat/Km
B1 | 57.82 ± 7.75 mM | 36000 M⁻¹ s⁻¹
B2 | 41.96 ± 2.07 mM | 38300 M⁻¹ s⁻¹
B3 | 43.98 ± 3.94 mM | 25900 M⁻¹ s⁻¹
B4 | 39.23 ± 4.49 mM | 34400 M⁻¹ s⁻¹
B5 | 51.04 ± 2.04 mM | 19700 M⁻¹ s⁻¹
B6 | 30.39 ± 2.99 mM | 32500 M⁻¹ s⁻¹
